The record followed here is patent US20220313845A1 (MYTHIC THERAPEUTICS, published 2022).

T1: DLL3 on NCI-H82 cells (human, UniProt Q9NYJ7 27-618)
T1 construct: Endogenous DLL3 of NCI-H82 (DLL3+) cells; also called cell surface DLL3
T1 sequence: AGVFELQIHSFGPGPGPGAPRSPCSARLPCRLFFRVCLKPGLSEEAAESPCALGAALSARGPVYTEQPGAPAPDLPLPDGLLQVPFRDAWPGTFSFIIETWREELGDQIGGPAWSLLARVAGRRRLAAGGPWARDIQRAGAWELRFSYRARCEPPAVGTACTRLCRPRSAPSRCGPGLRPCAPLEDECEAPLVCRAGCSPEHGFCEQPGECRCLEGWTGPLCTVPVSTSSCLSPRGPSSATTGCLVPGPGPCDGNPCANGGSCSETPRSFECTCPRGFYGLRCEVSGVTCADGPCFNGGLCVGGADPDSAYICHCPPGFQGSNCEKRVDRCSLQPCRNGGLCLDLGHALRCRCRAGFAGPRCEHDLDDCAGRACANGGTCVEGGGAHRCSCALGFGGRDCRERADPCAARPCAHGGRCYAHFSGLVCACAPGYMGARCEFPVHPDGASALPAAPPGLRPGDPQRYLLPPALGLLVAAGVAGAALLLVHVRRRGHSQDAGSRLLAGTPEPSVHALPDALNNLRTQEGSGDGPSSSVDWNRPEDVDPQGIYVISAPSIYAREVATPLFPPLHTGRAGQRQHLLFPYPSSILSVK

T2: recombinant human DLL3 extracellular domain (R&D Systems, Cat #9749-DL) (human, UniProt Q9NYJ7 27-492)
T2 construct: Bought protein; also called soluble recombinant human DLL3 extracellular domain
T2 sequence: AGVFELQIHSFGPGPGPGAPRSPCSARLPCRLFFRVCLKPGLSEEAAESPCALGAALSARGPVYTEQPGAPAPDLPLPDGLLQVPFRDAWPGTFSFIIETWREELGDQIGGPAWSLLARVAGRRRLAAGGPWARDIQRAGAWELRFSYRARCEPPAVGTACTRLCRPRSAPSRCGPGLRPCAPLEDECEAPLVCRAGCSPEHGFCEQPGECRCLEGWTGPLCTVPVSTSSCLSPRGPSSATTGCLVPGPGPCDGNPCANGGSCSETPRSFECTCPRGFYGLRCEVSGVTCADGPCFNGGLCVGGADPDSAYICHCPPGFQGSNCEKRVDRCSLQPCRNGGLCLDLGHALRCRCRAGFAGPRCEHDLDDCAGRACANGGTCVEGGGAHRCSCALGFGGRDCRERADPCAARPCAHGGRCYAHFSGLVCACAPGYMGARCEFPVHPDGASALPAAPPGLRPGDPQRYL

B1: rovalpituzumab (antibody, V domains shown)
VH: QVQLVQSGAEVKKPGASVKVSCKASGYTFTNYGMNWVRQAPGQGLEWMGWINTYTGEPTYADDFKGRVTMTTDTSTSTAYMELRSLRSDDTAVYYCARIGDSSPSDYWGQGTLVTVSS
VL: EIVMTQSPATLSVSPGERATLSCKASQSVSNDVVWYQQKPGQAPRLLIYYASNRYTGIPARFSGSGSGTEFTLTISSLQSEDFAVYYCQQDYTSPWTFGQGTKLEIK
notes: IgG expressed in Expi293; the entries called heavy and light chain are variable domains; also called MYT0638
B2: SEQ ID NO 613 (other)
VH: EVQLVESGGGLVQPGGSLRLSCAASGFNIEYESIGWVRRAPGKGEELVARIYPTNGYTRYADSVKGRFTISADTSKNTAYLQMNSLRAEDTAVYYCARSEYSHYSGSHHYYALDYSGQGTLVTVSS
notes: also called Humanized VH variant #8
B3: SEQ ID NO 607 (other)
VH: EVQLVESGGGLVQPGGSLRLSCAASGFNIYSESIGWVRRAPGKGEELVARIYPTNGYTRYADSVKGRFTISADTSKNTAYLQMNSLRAEDTAVYYCARSYYSHYDGHYHYYGLDYSGQGTLVTVSS
notes: also called Humanized VH variant #2
B4: SEQ ID NO 619 (other)
VH: EVQLVESGGGLVQPGGSLRLSCAASGFNISHYSIGWVRHAPGKGEELVARIYPTNGYTRYADSVKGRFTISADTSKNTAYLQMNSLRAEDTAVYYCARHHYSHYDGHSHYYGLDYSGQGTLVTVSS
notes: also called Humanized VH variant #14
B5: SEQ ID NO 610 (other)
VH: EVQLVESGGGLVQPGGSLRLSCAASGFNIEYYSIGWVRRAPGKGEELVARIYPTNGYTRYADSVKGRFTISADTSKNTAYLQMNSLRAEDTAVYYCAREYYSYHDEYEYDYALDYSGQGTLVTVSS
notes: also called Humanized VH variant #5
B6: SEQ ID NO 618 (other)
VH: EVQLVESGGGLVQPGGSLRLSCAASGFNISEESIGWVRRAPGKGEELVARIYPTNGYTRYADSVKGRFTISADTSKNTAYLQMNSLRAEDTAVYYCARSYYAHYSAGYYYYALDYSGQGTLVTVSS
notes: also called Humanized VH variant #13
B7: SEQ ID NO 614 (other)
VH: EVQLVESGGGLVQPGGSLRLSCAASGFNISEHSIGWVRRAPGKGEELVARIYPTNGYTRYADSVKGRFTISADTSKNTAYLQMNSLRAEDTAVYYCARSYYHGYSHGHHYYAIDYSGQGTLVTVSS
notes: also called Humanized VH variant #9
B8: SEQ ID NO 611 (other)
VH: EVQLVESGGGLVQPGGSLRLSCAASGFNIEHYSIGWVRRAPGKGEELVARIYPTNGYTRYADSVKGRFTISADTSKNTAYLQMNSLRAEDTAVYYCARHHYYGYHSGYHHYAIDYSGQGTLVTVSS
notes: also called Humanized VH variant #6
B9: SEQ ID NO 609 (other)
VH: EVQLVESGGGLVQPGGSLRLSCAASGFNIYSYSIGWVRRAPGKGEELVARIYPTNGYTRYADSVKGRFTISADTSKNTAYLQMNSLRAEDTAVYYCAREHYHGYYDGAHYYALDYSGQGTLVTVSS
notes: also called Humanized VH variant #4
B10: SEQ ID NO 620 (other)
VH: EVQLVESGGGLVQPGGSLRLSCAASGFNIYDHSIGWVRRAPGKGEELVARIYPTNGYTRYADSVKGRFTISADTSKNTAYLQMNSLRAEDTAVYYCARSSYSGYYGSHHYYALDYSGQGTLVTVSS
notes: also called Humanized VH variant #15
B11: SEQ ID NO 615 (other)
VH: EVQLVESGGGLVQPGGSLRLSCAASGFNIHSYYIGWVRRAPGKGEELVARIYPTNGYTRYADSVKGRFTISADTSKNTAYLQMNSLRAEDTAVYYCARGYYGHEYDYHYDYYGGGFDYSGQGTLVTVSS
notes: also called Humanized VH variant #10
B12: SEQ ID NO 612 (other)
VH: EVQLVESGGGLVQPGGSLRLSCAASGFNISSSDIGWVRRAPGKGEELVARIYPTNGYTRYADSVKGRFTISADTSKNTAYLQMNSLRAEDTAVYYCARYYYYDDDGYYYEHAIDYSGQGTLVTVSS
notes: also called Humanized VH variant #7
B13: SEQ ID NO 606 (other)
VH: EVQLVESGGGLVQPGGSLRLSCAASGFNISYYYIGWVRRAPGKGEELVARIYPTNGYTRYADSVKGRFTISADTSKNTAYLQMNSLRAEDTAVYYCARAYGDSDHYSEAIDYSGQGTLVTVSS
notes: also called Humanized VH variant #1
B14: SEQ ID NO 616 (other)
VH: EVQLVESGGGLVQPGGSLRLSCAASGFNIHYEEIGWVRRAPGKGEELVARIYPTNGYTRYADSVKGRFTISADTSKNTAYLQMNSLRAEDTAVYYCARYSYYYHYGGGMDYSGQGTLVTVSS
notes: also called Humanized VH variant #11
B15: SEQ ID NO 608 (other)
VH: EVQLVESGGGLVQPGGSLRLSCAASGFNISYYSIGWVRRAPGKGEELVARIYPTNGYTRYADSVKGRFTISADTSKNTAYLQMNSLRAEDTAVYYCARYHHSEYSDYYGYYSEYGFDYSGQGTLVTVRS
notes: also called Humanized VH variant #3

The target in one assay is T1, DLL3 on NCI-H82 cells. The assay can be described thus: flow cytometry titration on NCI-H82 cells, Alexa Fluor 488 anti-human IgG; Example 37 calls the fitted value a dissociation constant KD. On the procedure:
FIGS. 20a-c: Characterization of binding affinity for anti-DLL3 mAbs. Anti-DLL3 mAbs were assayed for their binding to NCI-H82 cells.
Binding affinity of selected anti-DLL3 pH engineered antibody variants from Examples 9-13 were measured on NCI-H82 cells. 100,000 cells per well were resuspended in 900 μL FC buffer in a 96 well deep well plate. Rovalpituzumab and pH engineered antibody variants were serially diluted at a 1:3 dilution. 100 μL of diluted antibody was added to each well with final concentration ranging from […] and incubated for 2 hours at 4° C. Post incubation, the cells were spun at 2000 rpm for 2 min and supernatant was discarded. Cells were washed twice with 500 μL of ice-cold FC buffer and resuspended with 100 μL of FC buffer. The cells were then transferred from the deep well plate to 96 well round bottom plate, spun at 2000 rpm for 2 min and incubated with 100 μL of 10 μg/mL Alexa Fluor 488 conjugated goat anti-human IgG secondary antibody (ThermoFisher Scientific, A11013) for 30 min. Post incubation, cells were washed with FC buffer and resuspended in 100 μL of FC buffer to read on a BD Accuri C6 flow cytometer. Binding affinity was measured as a dissociation constant KD by GraphPad Prism assuming Michaelis-Menten binding kinetics. […]
(In general: A flow cytometer gives signals particle by particle.)
What is called KD is the concentration at which binding is half-saturated. High values mean a looser complex, low ones a tighter complex. With B1, the KD was 8 pM.

Another assay concerns the target T2, recombinant human DLL3 extracellular …. The assay can be described thus: phage ELISA after three rounds of panning on biotinylated recombinant human DLL3. The text has this: Multiple ABPC display systems, including phage display systems and those with ABPCs based on VH domains, have been described in the literature and can be used as a template for selection of pH engineered ABPCs using panning (Scroter C (2015) “A generic approach to engineer antibody pH switches using combinatorial histidine scanning libraries and yeast display” mAbs, 7:1, 138-151; Bonvin P (2015) “De novo isolation of antibodies with pH-dependent binding properties” mAbs, 7:2, 294-302; Traxlmayr P (2014) “Construction of pH-sensitive Her2-binding IgG1-Fc by directed evolution” Biotechnology Journal 9(8): 1013-1022; Gera N (2012) “Design of pH sensitive binding proteins from the hyperthermophilic Sso7 d scaffold” PLOS ONE 7 (11) e48928). pH engineered anti-DLL3 variants were selected by screening a proprietary humanized VH domain phage display library. Humanized VH library was screened against soluble recombinant human DLL3 extracellular domain (R&D Systems, Cat #9749-DL) in three rounds of selections with successively lower concentrations to isolate pH dependent anti-DLL3 VH domains. Briefly, the library was depleted for non-specific binders by incubating with Dynal M-280 streptavidin beads, bound antibodies were separated via a magnet and supernatant was collected for positive selection with human DLL3. Depleted library was further incubated with biotinylated recombinant human DLL3 at pH 7.4 for 1-3 hours at room temperature. Dynal streptavidin beads were added to the mixture to capture human DLL3 bound antibodies and washed 3× with a pH 7.4 buffer. Bound antibodies were eluted from beads using 0.1 M glycine pH 2.7 which was then neutralized with 1M Tris pH 7.4.
(An ELISA detects its analyte on a solid surface through an enzyme-linked reagent.)
B2: the binding result is given as “binds”.

In the case of B3, the binding result is “binds”.

With B4, the binding result is on record as “binds”.

In the case of B5, the binding result is given as “binds”.

With B6, the binding result is given as “binds”.

With B7, the binding result is reported as “binds”.

On to B8, for which the binding result was “binds”.

Consider B9, for which the binding result was “binds”.

Take B10: the binding result is given as “binds”.

Turning to B11, the binding result is on record as “binds”.

For the molecule B12, the binding result was “binds”.

As to B13, the binding result is “binds”.

In the case of B14, the binding result is “binds”.

Turning to B15, the binding result was “binds”.
